Laboratory results: PMC11533527, “A yeast two-hybrid system to obtain triple-helical ligands from combinatorial random peptide libraries” (The Journal of Biological Chemistry, 2024)

What was measured:
[1] = molecular target: T1, glutathione S-transferase (GST)-PEDF-fusion protein (mouse, UniProt P97298 20-417); assay: ELISA; competitive ELISA: wells coated with 10 μg/ml collagen I; annealed peptides preincubated with 3 nM GST-PEDF for 10 min at room temperature in 20 mM HEPES-Na pH 7.4, 100 mM NaCl, 0.005% Tween 20; 90 min at 4 °C in the wells; HRP-anti-GST detection; conditions: both partners purified
T1 construct: pigment epithelium-derived factor (PEDF); also called GST-fused PEDF; recombinant PEDF
T1 sequence (looked up): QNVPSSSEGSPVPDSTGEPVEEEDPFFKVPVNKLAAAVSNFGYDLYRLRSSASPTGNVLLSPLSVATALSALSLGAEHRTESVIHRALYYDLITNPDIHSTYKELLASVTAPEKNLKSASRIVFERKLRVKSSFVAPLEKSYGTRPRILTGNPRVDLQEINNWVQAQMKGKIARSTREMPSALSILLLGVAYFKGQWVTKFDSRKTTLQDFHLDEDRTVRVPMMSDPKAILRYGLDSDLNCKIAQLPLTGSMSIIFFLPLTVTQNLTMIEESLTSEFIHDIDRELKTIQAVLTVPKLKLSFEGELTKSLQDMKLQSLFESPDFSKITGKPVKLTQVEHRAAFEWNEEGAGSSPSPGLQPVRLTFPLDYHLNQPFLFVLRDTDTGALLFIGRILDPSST

[2] = molecular target: the molecule itself; assay: circular dichroism with thermal melting; peptides in PBS, heated at 95 °C, annealed at 4 °C overnight; [θ]225 followed from 4 to 85 °C; chains of one peptide forming a triple helix

B1: synthetic triple-helical peptide pep8 (peptide)
chain: YPPGPPGPPGPPGPRGPRGLLGLPGPPGPPGPPGPPG
HELM: PEPTIDE1{Y.P.[Hyp].G.P.[Hyp].G.P.[Hyp].G.P.[Hyp].G.P.R.G.P.R.G.L.L.G.L.[Hyp].G.P.[Hyp].G.P.[Hyp].G.P.[Hyp].G.P.[Hyp].G.[am]}$$$$V2.0; N-terminus assumed
SMILES: CC(C)C[C@H](NC(=O)CNC(=O)[C@H](CCCNC(=N)N)NC(=O)[C@@H]1CCCN1C(=O)CNC(=O)[C@H](CCCNC(=N)N)NC(=O)[C@@H]1CCCN1C(=O)CNC(=O)[C@@H]1C[C@@H](O)CN1C(=O)[C@@H]1CCCN1C(=O)CNC(=O)[C@@H]1C[C@@H](O)CN1C(=O)[C@@H]1CCCN1C(=O)CNC(=O)[C@@H]1C[C@@H](O)CN1C(=O)[C@@H]1CCCN1C(=O)CNC(=O)[C@@H]1C[C@@H](O)CN1C(=O)[C@@H]1CCCN1C(=O)[C@@H](N)Cc1ccc(O)cc1)C(=O)N[C@@H](CC(C)C)C(=O)NCC(=O)N[C@@H](CC(C)C)C(=O)N1C[C@H](O)C[C@H]1C(=O)NCC(=O)N1CCC[C@H]1C(=O)N1C[C@H](O)C[C@H]1C(=O)NCC(=O)N1CCC[C@H]1C(=O)N1C[C@H](O)C[C@H]1C(=O)NCC(=O)N1CCC[C@H]1C(=O)N1C[C@H](O)C[C@H]1C(=O)NCC(=O)N1CCC[C@H]1C(=O)N1C[C@H](O)C[C@H]1C(=O)NCC(N)=O
notes: Triple helix by CD; annealed before use; source: synthetic peptide (Fmoc solid phase, RP-HPLC purified)
For B1, the IC50 [1] was over 10 µM and the binding result [2] was “binds”.
